# Source: US20100248978, “METHOD FOR IDENTIFYING THE INTERACTION PARTNER OF AN ACTIVE AGENT” (Bayer Cropscience AG, published 2010)
# T1: p-hydroxyphenylpyruvate dioxygenase (HPPD) (Arabidopsis thaliana, UniProt P93836 P93836:1-445)
# T1 sequence: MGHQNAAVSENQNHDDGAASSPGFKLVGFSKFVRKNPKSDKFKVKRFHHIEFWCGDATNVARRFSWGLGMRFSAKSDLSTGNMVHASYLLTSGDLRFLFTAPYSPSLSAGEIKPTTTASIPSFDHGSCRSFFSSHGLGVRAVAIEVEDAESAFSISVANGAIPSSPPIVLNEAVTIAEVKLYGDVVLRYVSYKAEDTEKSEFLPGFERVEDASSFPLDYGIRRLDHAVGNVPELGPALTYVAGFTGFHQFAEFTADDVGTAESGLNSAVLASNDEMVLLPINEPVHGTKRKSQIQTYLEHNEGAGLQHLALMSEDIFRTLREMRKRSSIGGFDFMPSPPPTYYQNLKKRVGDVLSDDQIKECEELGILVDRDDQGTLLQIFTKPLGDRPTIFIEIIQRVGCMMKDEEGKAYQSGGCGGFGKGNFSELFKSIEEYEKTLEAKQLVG
# B1: S116B-C4 (ssRNA)
# RNA: GGGAGAGGAGGGAGAUAGAUAUCAAGUAACAAAUGAUACUUUCCAAGCAUAAUUCAUUCGCAGCCCGAAUUAAGUUUGUCCUCACGGUGGAUGG
# B2: S115A-C1 (ssRNA)
# RNA: GGGAGAGGAGGGAGAUAGAUAUCAACAAUGACUAGCCGUGUAAGUGGUCUCGUACAUCCGAAAAAGACGACCCAGUUUGUCCUCACGGUGGAUGG
# B3: S116D-C8 (ssRNA)
# RNA: GGGAGAGGAGGGAGAUAGAUAUCAAUAAAGUCGGUGACACCACGCAUCCAAAUACCGGUACGCGGAACUAAUAGUUUGUCCUCACGGUGGAUGG
# B4: S116C-C18 (ssRNA)
# RNA: GGGAGAGGAGGGAGAUAGAUAUCAAUAUCGCCACGUUACGAGUACCAAGCUUUAUUUCCGCAGCCCGAUAGAGUUUGUCCUCACGGUGGAUGG
# What was measured:
# Settings in all cases: tags: His-tag; biotinylated in the SELEX runs
# [1] = biological target: T1, p-hydroxyphenylpyruvate dioxygenase …; assay: filter; nitrocellulose filter retention
# Description: (§1) The bound RNA molecules were eluted by heating to 95° C. and amplified by RT-PCR and in vitro transcription before starting the next selection cycle. A nitrocellulose filter retention assay was used to determine binding of selected, radioactively labelled RNA libraries to recombinant protein (Methods in Enzymology, Vol 267, Combinatorial Chemistry, (1996), Abelson J. N. and Simon M. I., eds. Academic Press, San Diego). RNA library (−80 nM) was incubated with increasing concentrations of target protein in binding buffer and subsequently filtered through nitrocellulose filters which bind to proteins but not to RNA molecules. RNA bound to the target protein is retained within the complex on the filter and was quantified by a phosphoimager. Values were calculated as the percentage of total radiolabeled RNA in the reaction.
# (§2) To determine the binding properties of individual aptamers isolated as part of the mixture of aptamers binding to HPPD in the previous example, aptamers were cloned into a vector, and 24 clones were sequenced. […]
# [2] = biological target: T1, p-hydroxyphenylpyruvate dioxygenase …; assay: filter; 20 mM Hepes pH 7.4, 150 mM NaCl, 3 mM MgCl2
# Text: as §1, with “The T7-RNA polymerase promoter is underlined. The double stranded DNA template was used to transcribe the initial RNA library. The procedures to produce an RNA library and to perform a SELEX experiment are well known to a person skilled in the art and described in, e.g., Methods in Enzymology, Vol 267, Combinatorial Chemistry (1996), Abelson J. N. and Simon M. I., eds. Academic Press, San Diego. Subsequently, the complexes between target and RNA were captured on streptavidin-coated beads and unbound RNA was removed by washing with binding buffer. The” for “The”, “reaction. […]” for “reaction.”
# [3] = biological target: T1, p-hydroxyphenylpyruvate dioxygenase …; assay: FP; nitrocellulose filter retention (method is filter binding)
# Description: as §1, §2
Binder,Kd [1] [nM],also measured
B1,740,–
B2,–,Kd [2]: 128 nM
B3,–,Kd [3]: 120 nM
B4,832,–
